The values that follow come from article PMC2836179 (Biochemistry, 2010).

B1: His6-N-WASp (natural protein, human, UniProt O00401 1-505, looked up)
chain: MSSVQQQPPPPRRVTNVGSLLLTPQENESLFTFLGKKCVTMSSAVVQLYAADRNCMWSKKCSGVACLVKDNPQRSYFLRIFDIKDGKLLWEQELYNNFVYNSPRGYFHTFAGDTCQVALNFANEEEAKKFRKAVTDLLGRRQRKSEKRRDPPNGPNLPMATVDIKNPEITTNRFYGPQVNNISHTKEKKKGKAKKKRLTKADIGTPSNFQHIGHVGWDPNTGFDLNNLDPELKNLFDMCGISEAQLKDRETSKVIYDFIEKTGGVEAVKNELRRQAPPPPPPSRGGPPPPPPPPHNSGPPPPPARGRGAPPPPPSRAPTAAPPPPPPSRPSVAVPPPPPNRMYPPPPPALPSSAPSGPPPPPPSVLGVGPVAPPPPPPPPPPPGPPPPPGLPSDGDHQVPTTAGNKAALLDQIREGAQLKKVEQNSRPVSCSGRDALLDQIRQGIQLKSVADGQESTPPTPAPTSGIVGALMEVMQKRSKAIHSSDEDEDEDDEEDFEDDDEWED

Experiment in all cases: pull-down
The target of experiment [1] is full-length Arg (His6-Arg) (mouse, UniProt Q4JIM5 1-1182).
Chain of full-length Arg (His6-Arg) (Q4JIM5 whole entry): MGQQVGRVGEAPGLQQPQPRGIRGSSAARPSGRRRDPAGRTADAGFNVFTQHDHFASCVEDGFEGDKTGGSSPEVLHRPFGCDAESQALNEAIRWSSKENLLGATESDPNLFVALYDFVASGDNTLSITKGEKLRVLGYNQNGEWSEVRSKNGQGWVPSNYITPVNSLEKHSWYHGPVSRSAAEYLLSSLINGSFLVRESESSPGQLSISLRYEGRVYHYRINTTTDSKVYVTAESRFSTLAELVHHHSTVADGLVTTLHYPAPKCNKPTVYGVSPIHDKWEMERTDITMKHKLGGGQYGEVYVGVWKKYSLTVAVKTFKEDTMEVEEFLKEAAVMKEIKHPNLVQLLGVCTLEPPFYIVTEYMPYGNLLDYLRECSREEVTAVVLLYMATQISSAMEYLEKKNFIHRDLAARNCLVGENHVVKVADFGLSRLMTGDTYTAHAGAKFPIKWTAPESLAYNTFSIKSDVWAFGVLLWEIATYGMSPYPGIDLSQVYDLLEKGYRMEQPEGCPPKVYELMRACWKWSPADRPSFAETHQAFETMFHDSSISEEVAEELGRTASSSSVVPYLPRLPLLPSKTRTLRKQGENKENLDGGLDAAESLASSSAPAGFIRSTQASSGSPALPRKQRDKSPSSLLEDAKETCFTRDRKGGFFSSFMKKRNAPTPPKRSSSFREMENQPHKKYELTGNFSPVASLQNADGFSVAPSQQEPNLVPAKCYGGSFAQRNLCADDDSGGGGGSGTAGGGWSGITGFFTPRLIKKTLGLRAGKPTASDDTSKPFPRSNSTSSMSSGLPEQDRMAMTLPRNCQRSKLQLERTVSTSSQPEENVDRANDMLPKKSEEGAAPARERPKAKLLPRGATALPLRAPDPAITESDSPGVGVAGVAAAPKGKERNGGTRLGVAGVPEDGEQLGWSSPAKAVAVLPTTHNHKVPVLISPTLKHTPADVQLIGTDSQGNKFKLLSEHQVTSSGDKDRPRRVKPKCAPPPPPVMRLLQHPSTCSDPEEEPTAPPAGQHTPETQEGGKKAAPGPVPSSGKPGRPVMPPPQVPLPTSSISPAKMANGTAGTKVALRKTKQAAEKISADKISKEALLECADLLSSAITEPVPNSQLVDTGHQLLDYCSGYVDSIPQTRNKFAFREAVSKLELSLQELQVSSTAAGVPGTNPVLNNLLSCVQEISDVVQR
The experiment “His6-N-WASp” deals with B1.
The target of experiment [2] is Phosphorylated N-WASp (pN-WASp) (human, UniProt O00401 1-505, tyrosine phosphorylated by co-expressed Arg; Y256 is the primary site).

B1 returned a Kd in experiment [1] of at least 3800 nM.

B2: GST-Arg-SH3 (domain or fragment, mouse, UniProt Q4JIM5 107-167, looked up)
chain: SDPNLFVALYDFVASGDNTLSITKGEKLRVLGYNQNGEWSEVRSKNGQGWVPSNYITPVNS
With B2, the Kd with His6-N-WASp amounted to 1400 ± 200 nM.

B3: GST-Arg-SH3SH2 (domain or fragment, mouse, UniProt Q4JIM5 107-263, looked up)
chain: SDPNLFVALYDFVASGDNTLSITKGEKLRVLGYNQNGEWSEVRSKNGQGWVPSNYITPVNSLEKHSWYHGPVSRSAAEYLLSSLINGSFLVRESESSPGQLSISLRYEGRVYHYRINTTTDSKVYVTAESRFSTLAELVHHHSTVADGLVTTLHYPA
As to B3, the results for the Kd (with His6-N-WASp; in experiment [2]) were at least 3700 nM and 1700 ± 100 nM, respectively.
